According to article PMC4920197, “SMN and coilin negatively regulate dyskerin association with telomerase RNA” (Biology Open, 2016):

Molecular target: T1, GFP-tagged SMN E134K (human, UniProt Q16637 1-294, E134K)
T1 construct: survivor of motor neuron protein (SMN) with the clinically defined SMA patient mutation E134K, made from GFP-SMN; source: HeLa, transfected (FuGENE HD), in lysate
Assay: co-IP; HeLa cells transfected 24 h with GFP vector or GFP-tagged coilin or SMN constructs; lysate in mRIPA buffer immunoprecipitated with anti-GFP antibody; endogenous dyskerin or NAF1 detected by western blot
Conditions: partners not purified

T1 sequence (Q16637 whole entry E134K): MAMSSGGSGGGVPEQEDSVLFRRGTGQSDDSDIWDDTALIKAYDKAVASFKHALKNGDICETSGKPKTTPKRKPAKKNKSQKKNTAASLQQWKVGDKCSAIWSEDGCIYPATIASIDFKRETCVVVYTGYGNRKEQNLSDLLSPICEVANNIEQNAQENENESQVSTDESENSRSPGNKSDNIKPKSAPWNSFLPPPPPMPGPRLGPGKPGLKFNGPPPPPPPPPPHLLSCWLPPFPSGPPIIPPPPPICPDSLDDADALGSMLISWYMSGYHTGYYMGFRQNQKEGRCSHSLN

- decrease of dyskerin in the SMN complex relative to WT SMN: ~50%
B1: dyskerin (natural protein, human (endogenous in HeLa), UniProt O60832 1-514, looked up)
chain: MADAEVIILPKKHKKKKERKSLPEEDVAEIQHAEEFLIKPESKVAKLDTSQWPLLLKNFDKLNVRTTHYTPLACGSNPLKREIGDYIRTGFINLDKPSNPSSHEVVAWIRRILRVEKTGHSGTLDPKVTGCLIVCIERATRLVKSQQSAGKEYVGIVRLHNAIEGGTQLSRALETLTGALFQRPPLIAAVKRQLRVRTIYESKMIEYDPERRLGIFWVSCEAGTYIRTLCVHLGLLLGVGGQMQELRRVRSGVMSEKDHMVTMHDVLDAQWLYDNHKDESYLRRVVYPLEKLLTSHKRLVMKDSAVNAICYGAKIMLPGVLRYEDGIEVNQEIVVITTKGEAICMAIALMTTAVISTCDHGIVAKIKRVIMERDTYPRKWGLGPKASQKKLMIKQGLLDKHGKPTDSTPATWKQEYVDYSESAKKEVVAEVVKAPQVVAEAAKTAKRKRESESESDETPPAAPQLIKKEKKKSKKDKKAKAGLESGAEPGDGDSDTTKKKKKKKKAKEVELVSE
notes: dyskerin, endogenous in HeLa cells; also called telomerase and box H/ACA scaRNP core protein dyskerin; source: endogenous, HeLa lysate
